First the molecules themselves.
B1: E. coli TonB with C-terminal TEV site and streptag-II (natural protein)
chain: MTLDLPRRFPWPTLLSVCIHGAVVAGLLYTSVHQVIELPAPAQPISVTMVTPADLEPPQAVQPPPEPVVEPEPEPEPIPEPPKEAPVVIEKPKPKPKPKPKPVKKVQEQPKRDVKPVESRPASPFENTAPARLTSSTATAATSKPVTSVASGPRALSRNQPQYPARAQALRIEGQVKVKFDVTPDGRVDNVQILSAKPANMFEREVKNAMRRWRYEPGKPGSGIVVNILFKINGTTEIQ
notes: TonB, E. coli; only the transmembrane helix (residues 10 to 32) was built, the periplasmic domain is not visible; also called EcTonB; TonBF
B2: E. coli ExbD with C-terminal TEV site and 10his-tag (natural protein)
chain: MAMHLNENLDDNGEMHDINVTPFIDVMLVLLIIFMVAAPLATVDVKVNLPASTSTPQPRPEKPVYLSVKADNSMFIGNDPVTDETMITALNALTEGKKDTTIFFRADKTVDYETLMKVMDTLHQAGYLKIGLVGEETAKAK
notes: ExbD, E. coli; model built from Asp11 through the transmembrane helix (21-42), periplasmic domain not visible; No TEV digestion is described in the purification of TonB-ExbBD, so the tag was probably still on the chain; also called EcExbD; ExbDY
B3: E. coli TolQ (natural protein, UniProt P0ABU9 1-230, looked up)
chain: MTDMNILDLFLKASLLVKLIMLILIGFSIASWAIIIQRTRILNAAAREAEAFEDKFWSGIELSRLYQESQGKRDNLTGSEQIFYSGFKEFVRLHRANSHAPEAVVEGASRAMRISMNRELENLETHIPFLGTVGSISPYIGLFGTVWGIMHAFIALGAVKQATLQMVAPGIAEALIATAIGLFAAIPAVMAYNRLNQRVNKLELNYDNFMEEFTAILHRQAFTVSESNKG
notes: TolQ, E. coli; residues 2-225 built in the structure; also called EcTolQ; TolQA
B4: E. coli ExbB (natural protein)
chain: MGNNLMQTDLSVWGMYQHADIVVKCVMIGLILASVVTWAIFFSKSVEFFNQKRRLKREQQLLAEARSLNQANDIAADFGSKSLSLHLLNEAQNELELSEGSDDNEGIKERTSFRLERRVAAVGRQMGRGNGYLATIGAISPFVGLFGTVWGIMNSFIGIAQTQTTNLAVVAPGIAEALLATAIGLVAAIPAVVIYNVFARQIGGFKAMLGDVAAQVLLLQSRDLDLEASAAAHPVRVAQKLRAG
notes: ExbB, E. coli; also called EcExbB; ExbBA

The target of the series “E. coli ExbB” is B4. The series is described as follows: cryo-EM structure; TonB-ExbBD complex, co-expressed and co-purified, in amphipol PMAL-C12 (Tris 30 mM pH8.0 NaCl 170 mM EDTA 1 mM); 300 keV; consensus map 2.8 A and two further classes at 3.2 A. Particulars: both partners purified.
Series [1] concerns the molecule itself. The description is as above.
Series [2] deals with the molecule itself. As to the kind of experiment: cryo-EM structure; TEV-digested TolATEVQR complex, co-expressed and co-purified, in LMNG (Hepes/NaOH 30 mM pH7.5 NaCl 150 mM EDTA 1 mM LMNG 0.002%), second SEC peak; 300 keV; two 3D classes (TolATEVQR-I 2.94 A, TolATEVQR-II 3.18 A).

For orientation: stoichiometry N means the number of molecules, sites or subunits per partner or assembly.

Take B1: the “stoichiometry N” value with E. coli ExbB is 1 TonB per five ExbB.

Consider B2, for which the “stoichiometry N” value in series [1] was 2.

B3: the “stoichiometry N” value in series [2] was determined as 5.

As to B4, the “stoichiometry N” value in series [1] is 5.

These data come from publication PMC12215075, “Cryo-EM structures of the E. coli Ton and Tol motor complexes” (Nature Communications, 2025).
